Measured values reported in patent US20150218538A1 (UNIVERSITY OF NORTH CAROLINA AT CHAPEL HILL, published 2015).
Blank lines part the entries; values can stand above or below the molecule they belong to. Ends that are not written are not given here.

Assays:
[1] = target: chimeric form of Gαq (Gαq/i), activated with aluminum fluoride; experiment: fluorescence polarization in 384-well plates; 30 µM unlabeled 27-mer, 200 nM TAMRA-27-mer, 1.5 µM Gαq/i with aluminum fluoride; competitor: TAMRA-27-mer
[2] = target: T1, Gαq activated with aluminum fluoride (Gαq-GDP plus aluminum fluoride) (UniProt P50148 35-359); experiment: cell-based or functional assay
T1 sequence (looked up): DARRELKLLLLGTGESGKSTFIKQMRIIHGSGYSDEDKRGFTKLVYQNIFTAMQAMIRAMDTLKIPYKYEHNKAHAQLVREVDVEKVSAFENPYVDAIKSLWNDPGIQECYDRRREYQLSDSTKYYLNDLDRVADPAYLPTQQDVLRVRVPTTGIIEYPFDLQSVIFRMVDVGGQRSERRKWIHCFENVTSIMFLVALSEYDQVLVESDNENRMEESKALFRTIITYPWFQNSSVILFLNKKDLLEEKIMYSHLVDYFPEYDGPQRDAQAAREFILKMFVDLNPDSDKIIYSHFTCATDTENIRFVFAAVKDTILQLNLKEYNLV

[3] = target: T1, Gαq activated with aluminum fluoride …; experiment: fluorescence polarization competition; unlabeled PLC-β3 added to labeled 25-mer (400 nM) and Gαq (4 µM); competitor: TAMRA-25-mer
Source text: (§1) Quantification of Gαq binding to peptides corresponding to the HTH of PLβ3. […] KD and IC₅₀ values were derived from three independent experiments.

[4] = target: T1, Gαq activated with aluminum fluoride …; experiment: fluorescence polarization; Gαq activated with aluminum fluoride titrated into TAMRA-labeled peptide
Source text: as §1

percent decrease in fluorescence polarization [1]: 50 percent
Molecule: unlabeled 27-mer (from UniProt Q01970 852-878) (peptide)

phospholipase activity of PLC-β3 activated by Gαq in lipid vesicles (IC50) [2]: 100 nM
Molecule: peptide corresponding to the HTH of PLC-β3 and containing an I860A substitution (from UniProt Q01970 852-878)

IC50 [3]: ~1000 nM
B1: full-length PLC-β3 (wild type) (enzyme, UniProt Q01970 2-1234, looked up)
chain: AGAQPGVHALQLEPPTVVETLRRGSKFIKWDEETSSRNLVTLRVDPNGFFLYWTGPNMEVDTLDISSIRDTRTGRYARLPKDPKIREVLGFGGPDARLEEKLMTVVSGPDPVNTVFLNFMAVQDDTAKVWSEELFKLAMNILAQNASRNTFLRKAYTKLKLQVNQDGRIPVKNILKMFSADKKRVETALESCGLKFNRSESIRPDEFSLEIFERFLNKLCLRPDIDKILLEIGAKGKPYLTLEQLMDFINQKQRDPRLNEVLYPPLRPSQARLLIEKYEPNQQFLERDQMSMEGFSRYLGGEENGILPLEALDLSTDMTQPLSAYFINSSHNTYLTAGQLAGTSSVEMYRQALLWGCRCVELDVWKGRPPEEEPFITHGFTMTTEVPLRDVLEAIAETAFKTSPYPVILSFENHVDSAKQQAKMAEYCRSIFGDALLIEPLDKYPLAPGVPLPSPQDLMGRILVKNKKRHRPSAGGPDSAGRKRPLEQSNSALSESSAATEPSSPQLGSPSSDSCPGLSNGEEVGLEKPSLEPQKSLGDEGLNRGPYVLGPADREDEEEDEEEEEQTDPKKPTTDEGTASSEVNATEEMSTLVNYIEPVKFKSFEAARKRNKCFEMSSFVETKAMEQLTKSPMEFVEYNKQQLSRIYPKGTRVDSSNYMPQLFWNVGCQLVALNFQTLDVAMQLNAGVFEYNGRSGYLLKPEFMRRPDKSFDPFTEVIVDGIVANALRVKVISGQFLSDRKVGIYVEVDMFGLPVDTRRKYRTRTSQGNSFNPVWDEEPFDFPKVVLPTLASLRIAAFEEGGKFVGHRILPVSAIRSGYHYVCLRNEANQPLCLPALLIYTEASDYIPDDHQDYAEALINPIKHVSLMDQRARQLAALIGESEAQAGQETCQDTQSQQLGSQPSSNPTPSPLDASPRRPPGPTTSPASTSLSSPGQRDDLIASILSEVAPTPLDELRGHKALVKLRSRQERDLRELRKKHQRKAVTLTRRLLDGLAQAQAEGRCRLRPGALGGAADVEDTKEGEDEAKRYQEFQNRQVQSLLELREAQVDAEAQRRLEHLRQALQRLREVVLDANTTQFKRLKEMNEREKKELQKILDRKRHNSISEAKMRDKHKKEAELTEINRRHITESVNSIRRLEEAQKQRHDRLVAGQQQVLQQLAEEEPKLLAQLAQECQEQRARLPQEIRRSLLGEMPEGLGDGPLVACASNGHAPGSSGHLSGADSESQEENTQL
notes: mature; also called PLC-beta3; unlabeled PLC-β3

phospholipase activity of PLC-beta3 activated by G-alpha-q in lipid vesicles, as a function of TAMRA-25-mer concentration (IC50) [2]: ~1 microMolar
Kd [4]: ~6000 nM
B2: TAMRA-25-mer (25-residue peptide spanning the entire helix-turn-helix of PLC-β3, labeled with TAMRA) (peptide)
peptide: HQDYAEALINPIKHVSLMDQRARQL
modifications: also: TAMRA label, position not given here
notes: also called labeled 25-mer; 25 residue peptide of PLC-β3
